Assay results published in patent US20040258663A1, “Compositions and methods for enhanced mucosal delivery of interferon alpha” (Nastech Pharmaceutical Company Inc., priority 2003, published 2004).

Columns and labels:
[1] = system: EpiAirway cell membrane; type: cell-based; conditions: Table 11
Excerpt: While measurement of mitochondrial reductase activity by MTT reduction is a sensitive probe of cell viability, the assay necessarily destroys the cells and therefore can be carried out only at the end of each study. When cells undergo necrotic lysis, their cytotosolic contents are spilled into the surrounding medium, and cytosolic enzymes such as lactic dehydrogenase (LDH) can be detected in this medium. An assay for LDH in the medium can be performed on samples of medium removed at each time point of the two-hour determination of permeation kinetics.
A. The recommended LDH assay for evaluating cytolysis of the EpiAirway units is based on conversion of lactate to pyruvate with generation of NADH from NAD. The NADH is then reoxidized along with simultaneous reduction of the tetrazolium salt INT, catalyzed by a crude “diaphorase” preparation. The formazan formed from reduction of INT is soluble, so that the entire assay for LDH activity can be carried out in a homogenous aqueous medium containing lactate, NAD, diaphorase, and INT.
B. The assay for LDH activity is carried out on 50 μL aliquots from samples of “supernatant” medium surrounding an EpiAirway unit and collected at each time point. These samples were either stored for no longer than 24 h in the refrigerator or were thawed after being frozen within a few hours after collection. Each EpiAirway unit generates samples of supernatant medium collected at 15 min, 30 min, 1 h, and 2 h after application of the test material. The aliquots are all transferred to a 96 well microplate.
C. A 50 μL aliquot of medium which had not been exposed to a unit serves as a “blank” or negative control of 0% cytotoxicity. […] Thus, within experimental error, these sham-treated units show no cytolysis of the epithelial cells over the time course of the permeation kinetics measurements.
D. To prepare a sample of supernatant medium reflecting the level of LDH released after 100% of the cells in a unit have lysed, a unit which had not been subjected to any prior manipulations is added to a well of a 6-well microplate containing 0.9 mL of medium as in the protocol for determination of permeation kinetics, the plate containing the unit is frozen at −80° C., and the contents of the well are then allowed to thaw. This freeze-thaw cycle effectively lyses the cells and releases their cytosolic contents, including LDH, into the supernatant medium. A 50 μL aliquot of the medium from the frozen and thawed cells is added to the 96-well plate as a positive control reflecting 100% cytotoxicity.
E. To each well containing an aliquot of supernatant medium, a 50 μL aliquot of the LDH assay reagent is added. The plate is then incubated for 30 minutes in the dark.
F. The reactions are terminated by addition of a “stop” solution of 1 M acetic acid, and within one hour of addition of the stop solution, the absorbance of the plate is determined at 490 nm.
G. Computation of percent cytolysis is based on the assumption of a linear relationship between absorbance and cytolysis, with the absorbance obtained from the medium alone serving as a reference for 0% cytolysis and the absorbance obtained from the medium surrounding a frozen and thawed unit serving as a reference for 100% cytolysis.

[2] = system: EpiAirway™ Cell Membrane (mucosal epithelial cell layer); assay: Permeation kinetics of interferon-α-2b measured by ELISA assay; conditions: Table 9
Method: (§1) The epithelial cells are grown on porous membrane-bottomed cell culture inserts at an air-liquid interface, which results in differentiation of the cells to a highly polarized morphology. […] The inserts have a diameter of 0.875 cm, providing a surface area of 0.6 cm^2.
(§2) A. On arrival, the units are placed onto sterile supports in 6-well microplates. Each well receives 5 mL of proprietary culture medium. This DMEM-based medium is serum free but is supplemented with epidermal growth factor and other factors. The medium is always tested for endogenous levels of any cytokine or growth factor which is being considered for intranasal delivery, but has been free of all cytokines and factors studied to date except insulin. The 5 mL volume is just sufficient to provide contact to the bottoms of the units on their stands, but the apical surface of the epithelium is allowed to remain in direct contact with air. Sterile tweezers are used in this step and in all subsequent steps involving transfer of units to liquid-containing wells to ensure that no air is trapped between the bottoms of the units and the medium.
(§3) B. The units in their plates are maintained at 37° C. in an incubator in an atmosphere of 5% CO2 in air for 24 hours. At the end of this time the medium is replaced with fresh medium and the units are returned to the incubator for another 24 hours.
(§4) A. A “kit” of 24 EpiAirway units can routinely be employed for evaluating five different formulations, each of which is applied to quadruplicate wells. Each well is employed for determination of permeation kinetics (4 time points), transepithelial resistance, mitochondrial reductase activity as measured by MTT reduction, and cytolysis as measured by release of LDH. An additional set of wells is employed as controls, which are sham treated during determination of permeation kinetics, but are otherwise handled identically to the test sample-containing units for determinations of transepithelial resistance and viability.
(§5) B. In all experiments, the mucosal delivery formulation to be studied is applied to the apical surface of each unit in a volume of 100 μL, which is sufficient to cover the entire apical surface. An appropriate volume of the test formulation at the concentration applied to the apical surface (no more than 100 μL is generally needed) is set aside for subsequent determination of concentration of the active material by ELISA or other designated assay.
(§6) D. In order to minimize potential sources of error and avoid any formation of concentration gradients, the units are transferred from one 0.9 mL-containing well to another at each time point in the study. These transfers are made at the following time points, based on a zero time at which the 100 αL volume of test material was applied to the apical surface: 15 minutes, 30 minutes, 60 minutes, and 120 minutes.
(§7) E. In between time points the units in their plates are kept in the 37° C. incubator. Plates containing 0.9 mL medium per well are also maintained in the incubator so that minimal change in temperature occurs during the brief periods when the plates are removed and the units are transferred from one well to another using sterile forceps.

[3] = system: EpiAirway™ Cell Membrane (mucosal epithelial cell layer)
Method: as §1, §2, §3, §4, §5, §6, §7

[4] = Bioavailability of nasal interferon-α in healthy male volunteers versus subcutaneous administration; type: in vivo, human; conditions: for Cmax: 3 MIU, SC, human plasma
Excerpt: The present example provides a non-blinded study to determine the uptake of intranasally administered interferon-α in combination with one or more intranasal delivery-enhancing agents into the blood serum in healthy male volunteers.
Twelve healthy male subjects are enrolled in the step and each receives all 3 test product in a cross over fashion.
Each receive all 3 test products.
The protocol involved three doses of the same test product in a dose escalation manner.
The absorption and tolerance results of all products tested were tabulated and analyzed for Cmax, Tmax, and bioavailability (Area under concentration curve, AUC).
For nasal and injectable preparations in Protocols 1 and 2, 7 mL blood samples were drawn at 0 (prior to dose), 10, 20, 30, 45, 60, 75, 90, 120, 180, 240, 360, and 480 minutes post dosing into appropriate vacutainers.
The blood samples were centrifuged and the serum assayed for drug concentration using ELISA Method.
This is a single dose, parallel group study to evaluate absorption, tolerance and pharmacodynamic parameters of Interferon-α-2b by two routes of administration: subcutaneous and intranasally. The study involves twelve healthy male subjects randomly assigned six per group (6 subjects subcutaneous and 6 intranasal). The objective of the study is to evaluate the absorption, tolerance and pharmacodynamic parameters of intranasal administration of Interferon-α-2b by formulations of the present invention versus subcutaneous administration of interferon-α-2b (IntronA®, Schering, Corp.).
When receiving the intranasal dosage formulations, the subjects were seated and instructed to gently blow their nose before dosing. During dosing, the other nostril must be closed with the forefinger. They were also instructed to tilt their heads slightly back for dosing and to return their heads to an upright position while sniffing in gently immediately following dosing. Subjects must avoid additional sniffing and must remain in a seated position with head upright for 5 minutes after dosing. […]
Serum drug concentrations were measured using a suitable analytical method. […]

[5] = system: ciliary function in epithelial cell cultures; conditions: cited from earlier work

Substance | % Dead Cells at Time-Intervals (min), 0 ([1]; 0 min) [%] | % Dead Cells at Time-Intervals (min), 15 ([1]; 15 min) [%] | % Dead Cells at Time-Intervals (min), 30 ([1]; 30 min) [%] | % Dead Cells at Time-Intervals (min), 60 ([1]; 60 min) [%] | % Dead Cells at Time-Intervals (min), 120 ([1]; 120 min) [%] | % Permeated at Time-intervals (min), 0 min ([2]; 0 min) [%] | % Permeated at Time-intervals (min), 15 min ([2]; 15 min) [%] | % Permeated at Time-intervals (min), 30 min ([2]; 30 min) [%] | % Permeated at Time-intervals (min), 60 min ([2]; 60 min) [%] | % Permeated at Time-intervals (min), 120 min ([2]; 120 min) [%] | Fold Increase [3] [fold] | Cmax ([4]; 0 to 3 hour) [IU/mL] | Cmax ([4]; 0 to 4 hour) [IU/mL] | maximum concentration of interferon-α in the blood serum (Cmax) ([4]; subcutaneous, 3 MIU dose, at 3 hours post dosing) [IU/mL] | concentration producing ciliostasis / inhibiting ciliary motility [5] [µg/mL]
interferon α-2b [Intron A] | 0 | 0.84 | 0.93 | 1.65 | 4.27 | 0 | 0.000 | 0.003 | 0.011 | 0.022 | 1 | 4.0 | 6.8 | 4.0 | –
2-alkyl-4-hydroxyquinolines [pyo compound] | – | – | – | – | – | – | – | – | – | – | – | – | – | – | 50
